We go through ten molecules from US20030157554A1 (published 2003).

The chains are these.
T1: Fibrinogen (Genbank ID: M58569), S100A1 interactor (human, UniProt P02671 345-545, limits assumed)
T1 construct: range 345-~545; Prey from liver library found with S100A1; also called fibrinogen alpha subunit
T1 sequence (looked up): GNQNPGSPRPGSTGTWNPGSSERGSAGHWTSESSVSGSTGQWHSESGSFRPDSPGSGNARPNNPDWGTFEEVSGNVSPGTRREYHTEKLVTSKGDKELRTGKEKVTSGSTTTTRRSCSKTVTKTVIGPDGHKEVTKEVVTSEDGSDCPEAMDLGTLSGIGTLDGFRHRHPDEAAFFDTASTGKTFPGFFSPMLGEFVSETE

B1: FHOS (Genbank ID: AF113615) (other, human, UniProt Q9Y613 964-1164, looked up)
chain: TPQAAREVRIMQFCHTLREFALEYRTCRERVLQQQQKQATYRERNKTRGRMITETEKFSGVAGEAPSNPSVPVAVSSGPGRGDADSHASMKSLLTSRPEDTTHNRRSRGMVQSSSPIMPTVGPSTASPEEPPGSSLPSDTSDEIMDLLVQSVTKSSPRALAARERKRSRGNRKSLRRTLKSGLGDDLVQALGLSKGPGLEV
notes: range 964-1164; Prey from muscle library
B2: ATPase (ATP6N1) (Genbank ID: u73006) (other, human, UniProt Q93050 1-300, looked up)
chain: MGELFRSEEMTLAQLFLQSEAAYCCVSELGELGKVQFRDLNPDVNVFQRKFVNEVRRCEEMDRKLRFVEKEIRKANIPIMDTGENPEVPFPRDMIDLEANFEKIENELKEINTNQEALKRNFLELTELKFILRKTQQFFDEMADPDLLEESSSLLEPSEMGRGTPLRLGFVAGVINRERIPTFERMLWRVCRGNVFLRQAEIENPLEDPVTGDYVHKSVFIIFFQGDQLKNRVKKICEGFRASLYPCPETPQERKEMASGVNTRIDDLQMVLNQTEDHRQRVLQAAAKNIRVWFIKVRKM
notes: range 1-~300; Prey from liver library; end of the fragment approximate; also called Vacuolar-type H(+) ATPase; ATP6N17
B3: S100B-1 (other, human, UniProt P04271 1-92, looked up)
chain: MSELEKAMVALIDVFHQYSGREGDKHKLKKSELKELINNELSHFLEEIKEQEVVDKVMETLDNDGDGECDFQEFMAFVAMVTTACHEFFEHE
notes: Full-length bait; also called full length S100B
B4: STAU (Genbank ID: AF061939) (other, human, UniProt O95793 6-577, looked up)
chain: VQVQNPSAALSGSQILNKNQSLLSQPLMSIPSTTSSLPSENAGRPIQNSALPSASITSTSAAAESITPTVELNALCMKLGKKPMYKPVDPYSRMQSTYNYNMRGGAYPPRYFYPFPVPPLLYQVELSVGGQQFNGKGKTRQAAKHDAAAKALRILQNEPLPERLEVNGRESEEENLNKSEISQVFEIALKRNLPVNFEVARESGPPHMKNFVTKVSVGEFVGEGEGKSKKISKKNAAIAVLEELKKLPPLPAVERVKPRIKKKTKPIVKPQTSPEYGQGINPISRLAQIQQAKKEKEPEYTLLTERGLPRRREFVMQVKVGNHTAEGTGTNKKVAKRNAAENMLEILGFKVPQAQPTKPALKSEEKTPIKKPGDGRKVTFFEPGSGDENGTSNKEDEFRMPYLSHQQLPAGILPMVPEVAQAVGVSQGHHTKDFTRAAPNPAKATVTAMIARELLYGGTSPTAETILKNNISSGHVPHGPLTRPSEQLDYLSRVQGFQVEYKDFPKNNKNEFVSLINCSSQPPLISHGIGKDVESCHDMAALNILKLLSELDQQSTEMPRTGNGPMSVCGRC
notes: range 6-578; Prey from brain library; also called Staufen
B5: S100A9 (Genbank ID: M26311) (other, human, UniProt P06702 1-114, looked up)
chain: MTCKMSQLERNIETIINTFHQYSVKLGHPDTLNQGEFKELVRKDLQNFLKKENKNEKVIEHIMEDLDTNADKQLSFEEFIMLMARLTWASHEKMHEGDEGPGHHHKPGLGEGTP
notes: range 1-114; Prey from liver and muscle libraries
B6: SYN4 (Genbank ID: u07158) (other, human, UniProt Q12846 158-297, looked up)
chain: RQLKITNAGMVSDEELEQMLDSGQSEVFVSNILKDTQVTRQALNEISARHSEIQQLERSIRELHDIFTFLATEVEMQGEMINRIEKNILSSADYVERGQEHVKTALENQKKARKKKVLIAICVSITVVLLAVIIGVTVVG
notes: Prey from brain and muscle libraries; also called Syntaxin 4
B7: LZIP (Genbank ID: AF029674) (other, human, UniProt O43889 1-371, looked up)
chain: MELELDAGDQDLLAFLLEESGDLGTAPDEAVRAPLDWALPLSEVPSDWEVDDLLCSLLSPPASLNILSSSNPCLVHHDHTYSLPRETVSMDLESESCRKEGTQMTPQHMEELAEQEIARLVLTDEEKSLLEKEGLILPETLPLTKTEEQILKRVRRKIRNKRSAQESRRKKKVYVGGLESRVLKYTAQNMELQNKVQLLEEQNLSLLDQLRKLQAMVIEISNKTSSSSTCILVLLVSFCLLLVPAMYSSDTRGSLPAEHGVLSRQLRALPSEDPYQLELPALQSEVPKDSTHQWLDGSDCVLQAPGNTSCLLHYMPQAPSAEPPLEWPFPDLFSEPLCRGPILPLQANLTRKGGWLPTGSPSVILQDRYSG
notes: range 1-372; Prey from liver and muscle libraries; also called LIZP
B8: S100A1-1 (other, human, UniProt P23297 1-94, looked up)
chain: MGSELETAMETLINVFHAHSGKEGDKYKLSKKELKELLQTELSGFLDAQKDVDAVDKVMKELDENGDGEVDFQEYVVLVAALTVACNNFFWENS
notes: Full-length bait; also called full length S100A1
B9: Synphilin (Genbank ID: AF076929) (other, human, UniProt Q9Y6H5 335-660, looked up)
chain: PHLAADNLDKIHDENGNNLLHIAASQGHAECLQHLTSLMGEDCLNERNTEKLTPAGLAIKNGQLECVRWMVSETEAIAELSCSKDFPSLIHYAGCYGQEKILLWLLQFMQEQGISLDEVDQDGNSAVHVASQHGYLGCIQTLVEYGANVTMQNHAGEKPSQSAERQGHTLCSRYLVVVETCMSLASQVVKLTKQLKEQTVERVTLQNQLQQFLEAQKSEGKSLPSSPSSPSSPASRKSQWKSPDADDDSVAKSKPGVQEGIQVLGSLSASSRARPKAKDEDSDKILRQLLGKEISENVCTQEKLSLEFQDAQASSRNSKKIPLEKR
notes: range 335-~660; Prey from kidney library; end of the fragment approximate; also called Synphilin I; Synphilin 1
B10: NAPA1 (Genbank ID: U39412) (other, human, UniProt P54920 1-295, looked up)
chain: MDNSGKEAEAMALLAEAERKVKNSQSFFSGLFGGSSKIEEACEIYARAANMFKMAKNWSAAGNAFCQAAQLHLQLQSKHDAATCFVDAGNAFKKADPQEAINCLMRAIEIYTDMGRFTIAAKHHISIAEIYETELVDIEKAIAHYEQSADYYKGEESNSSANKCLLKVAGYAALLEQYQKAIDIYEQVGTNAMDSPLLKYSAKDYFFKAALCHFCIDMLNAKLAVQKYEELFPAFSDSRECKLMKKLLEAHEEQNVDSYTESVKEYDSISRLDQWLTTMLLRIKKTIQGDEEDLR
notes: Full-length bait; Gal4-BD fusion

Where two headings read alike, the source gives them in different places.

Series [1] deals with B2. The series is described as follows: Y2H 1x1 mating, binder AD fusion, target BD fusion.
Series [2] concerns the target B9. The series is described as follows: Y2H 1x1 mating, binder AD fusion, target BD fusion.
Series [3] has as its target T2, S100A6 (Genbank ID: M14300) (human, UniProt P06703 1-90). The series is described as follows: Y2H 1x1 mating, binder AD fusion, target BD fusion.
Series [4] deals with the molecule itself. The series is described as follows: Y2H 1x1 mating, binder AD fusion, target BD fusion.
Series [5] concerns the molecule itself. The series is described as follows: Y2H, baits tested against each other.
Series [6] addresses T1, Fibrinogen (Genbank ID: M58569), S100A1 …. The series is described as follows: Y2H 1x1 mating, binder AD fusion, target BD fusion.
Series [7] concerns the target B5. The series is described as follows: Y2H 1x1 mating, binder AD fusion, target BD fusion.
The target of series [8] is T2, S100A6 (Genbank ID: M14300). The series is described as follows: Y2H 1x1 mating, binder AD fusion, target BD fusion. The source holds these as a separate data set.
Series [9] deals with the molecule itself. The series is described as follows: Y2H 1x1 mating, binder AD fusion, target BD fusion. The source holds these as a separate data set.
Series [10] has as its target B1. The series is described as follows: Y2H 1x1 mating, binder AD fusion, target BD fusion.
Series [11] addresses B10. The series is described as follows: Y2H library screen, binder bait, target prey.
The target of series [12] is B7. The series is described as follows: Y2H 1x1 mating, binder AD fusion, target BD fusion.
Series [13] deals with the molecule itself. The series is described as follows: Y2H 1x1 mating, binder AD fusion, target BD fusion. This is another data set of the same source.
The target of series [14] is B9. The series is described as follows: Y2H 1x1 mating, binder AD fusion, target BD fusion. The source holds these as a separate data set.
Series [15] has as its target B7. The series is described as follows: Y2H library screen, binder bait, target prey.

As for B1, the binding result in [1], in series [2], in series [3] and in series [4] was “no binding” throughout.
On to B2, for which the binding result in series [2], in series [3] and in series [4] was “no binding” in each case.
On to B3, for which the binding result in [5] is “binds”; in series [6], “no binding”; in series [7] it was “binds”; in series [8], “binds”.
With B4, the binding result in [9] was “no binding”.
Turning to B5, the binding result in series [1], in [2] and in [10] was “no binding” throughout.
Turning to B6, the binding result is “binds” in series [11], “no binding” in series [12] and “no binding” in series [13].
As for B7, the binding result in [13] was “no binding”.
For B8, in [14], the binding result is given as “no binding”.
For the molecule B9, in series [3], the binding result was “no binding”.
As for B10, the binding result in [15] is given as “binds”.
